# Assay: soluble on expression in E. coli; label from the status in PepcDB or PDB records
row,Sequence,soluble on expression in E. coli
1,MGSDKIHHHHHHMNIQQLRYVVAIANSGTFREAAAKLFVSQPSLSVAVRDLETELGFQIFTRTTTGAVLTNQGMTFYENALEVVKSFDSFEKQFSQSEATEQEFSIASQHYDFLPPLITAFSKCNDNFSYFRIFESTTIRILDEVAQGNSEIGIIYINSQNKKGLLQRLDKLGLEFVELIPFKTHIYLGKDHPLASKTSLIMTDLEGLPTVRFTQDRDDYRYYSENFVEVLDSSVTYNVTDRATLNGILERTQAYATGSGFLDSRSVNGITVIPLEDHLDNQMIYIKRKDRNLSQMALKFVAVMEEYFKGFNS,not soluble
2,MGSDKIHHHHHHMNKIGYNMFQVDKNYWLVIAPYVYCCIKGKKALLYNTKNWEYLEVENENVIGLLRQLHKRDNLGAVFCEGKMLTELCYSNFISDFVLKEMGGVIDVASFPDKPIQMMPILNLQCDVDKLQQIEDRGIGEDILFNLLEINVFLYNVCDHHCLYCSKYSQQNLCCRVAETETSQVLDISALKSIIAQIRYGVVGRLNLFGGNIWKYPNYNDIPFLLSGFKGQIHIWSHYADFVGNKILDSDFFYDVIVPFPMEEELLRNCIFLLGDLQIKIHFYVTQIDEYAKAEEIVHKYAINDYSIHSTYVGCNLDYFEKYVYMDKGDILQSQYSMSQIFAHQKMNSHFFGSLSISVNGDVYANLNSLVLGNIYKDSLIDIVNKEMLDNTAWRKIRNDYPCCDCIYQWLCPSPSNYELAIGKPNLCHVKP,not soluble
3,MGSDKIHHHHHHMNLGNPIAKGNTAEIYLYDNKIMKLFKDYLPNTESMNEAKKQKYAYSCGLPVPNVFEVTKIQNRQAIIMEYVKGDSIGDLLLNNLNEAEYYINICVNEQKKIHAIHVNTDEMEAMGERLERQIKSVHKLDEKQKESILNKLHSIKLDPRLCHGDFHPFNLILSEKNVSIIDWIDASSGDIRADLFRTYLLYSQSSVELAEKYLHIYCRNTGLSRDEIFQWAPIIIAARISENVTATNIEYLNDLVAQYCN,not soluble
4,MGSDKIHHHHHHMNLKNTKAGFLLSAEHEKLPIAELNALIDIFSLEGNLNCFKNYVILDSSISEEIIKKMVKRGGYTNEGHVIFSESPIINQNVDETLENFFKSSETLDFPVERDETFAVRVLKLEKESPFNSMEIERKLGGIIKKKTSAQVSLKNPSKTVKVVISNDKMYTGIVIEKRDVEYFQNNRPHLRAYFHPGCIMPKLARCLVNLSRVKEGEIVLDPFCGTGGFLIEAGFLGCKLIGSDIDEQMVNGALLNLNTYDLSKQVISIKENDAKNVSKYLEALKIEKIDGIVTDPPYGISTSKKGDMLEIFEKIVDVLKDNDYLVFAAPNKMELDLNLVEFYEMRVHKSLTRYIHVYRKN,not soluble
5,MGSDKIHHHHHHMNLSNDSLNKSDISPAVAQQAVGWLLEMQEGALDARRQHAWQSWLNGNSEHQRAWAHMQRVNQRLSGLSSPLAHAALGAPKSAGRRHALKLLLLLGAGSMAGWSLREQIALQPLLADYNSGVGEQRKVALSDGSRVQLNTASAVDVRFDAQQRLIKLLQGELLMSASADARPLNLLSAQGTVRASTGSSRFNLRQLDGRTQLAVFAGAIEVAPANKSGPGLMLRASQQVTFGRDAWDSVRTVDANSGAWADGMLVASRMKLSDFLAELGRYRRGRLNCDANVADLLISGSYPLADSERILDMLQLALPVRVQRFTRYWVNVQARV,not soluble
6,MGSDKIHHHHHHMNMLLSEEQRDALQELMNISMGQAANSLARLIEAKITLSIPKISDVTPEQFVSMLSDQTMWYTRQSFLGSIKGEVISTLSKQGCDAIGKLMDYQPPLTQDRLNELLLELANILAGACLTGFAEQLSLNAKLSMPTMYSATSQHYHYRWASTLMMEVEFKVEVSQFDSKIVICLEEASVQTLLAKLQQLLE,not soluble
7,MGSDKIHHHHHHMNNFFTRVDNLSRLSVEKHNVAFSLFDWPAHIAEDTWWQSPDVLSIALTDHIEQWDEAQLIKLAKWECINSFSLNYTGELELIQEVSRILDKVALSDAREYLYHLIDEENQHMWYFQKFCRAYGGKVYPNKKFQIEKQLMSPAKEHFLVFARILIFEEIGHYYNIQNARDSRVHPFVREINEAHYKDESRHIAYGRQVLEHLAKDAITDEGDALWLGQQLDKSIAINIAALYNPQAYRDAGITKGMALRESLLNHPNRIELHETKLLGSFKRHAERLGITLTDTRK,not soluble
8,MGSDKIHHHHHHMNNIYSDIYEKLSTLQWLMKRHQMFCQAESGPFADTSRGQGRILAMLKIQPEIATKELAYLLGIRQQSLNELLNKMEKNGYVERKPSENDKRVMIVHLTEKGKQVQQPKTDYQNIFNCLLPEELLQMSQYLDRIIEAFQLQNGNALEENNMIDWMAQARERMGDEHFEQLMSMRERAFGHMRPPKDIPGAERFSENYNGYVPDRDGFQPRNFRPDIK,not soluble
9,MGSDKIHHHHHHMNPSSRHPQHSDTAASGASEGVPRRYASGRQYELRRGDALAVVTELAAGLRLYSRGGVQLTETYGDGDIPPGATGITLAPWANRVEDGVWYLNGKKQQLDITEVSRNNASHGLLRNAAYELVDEAEFSVTLEAPVFPQHGYPFLVRHRVQYLLAEDLGLVVRQTLLNDSQAPAPFVLGAHPYLRLGDVPASDLVLTVGTGSRLVADERLIPRSSEQVDGATDLRGGRTVSELDIDVAYTDLTFDGGVARQTLKASDGRSVSLWQDENCSYVHVFVTDQYPGRAKAVAIEPMTGPANAFNSGDGLRWLPAGESFTMTWGISASL,not soluble
10,MGSDKIHHHHHHMNQTTLNTIRNYVMQASAQWISDFNQGNVQTCINRYLPSATMQVHPFGKFTSIEAIADFWLEFAKSNPSDLVYRNIEIKVLNDRQAVLSANWRMNIASGFISKELWTLAEDGQWYLEEDDFTVLAQHTKPVDDKRTALVLVDLQNDYFSGGRFELDNTDSAAKQASQLLAHFRQKELPVIHMQHLFEETNAAFFSANTVGAEIESSVKPTANEPVIIKHQIDSFIETTLEQTLVELGIDNLVIVGAMAQACVQTLCRSAVNKGYKCQVISDAIAAPKLEYQQHSFTGGQLVAANLLSLSFGGADITDTKGWLQENK,not soluble
11,MGSDKIHHHHHHMNRGKALQLVKPHLTEHRYQHTIGVMETAIDLAKLYGADQQKAELAAIFHDYAKFRDKNEMRTLIREKLSQQDILFYGDELLHAPCGAYYVREEVGIEDEDVLQAIRFHTTGRPNMSLLEKIIFLADYIEPNRQFPGVEKVRTQAKTDLNGAIISSLVNTITFLLKKNQPIYPDTLATYNQLLLEQK,not soluble
12,MGSDKIHHHHHHMNRLEIVNNISTNIERERIKLGMSQAQFAKALDMSLSTYKRIANGESSRIDVYTAYLIYKLTGRFSCELTGFNDDVINLVKRIKKLSKSQRILIDSIIDTELALSAYKDESCHTEDLISVLIPTGNMTDGMILDSYNVEKLDVSNYRKAFGDALHIGIRITSNHLHPVYNKGDILLISRNPIRDGDTGIFINAQNKRAYIRKLHQKNPCELTPINNYGETFYVDSDNVDDMSKWIKFGHVLCKVR,not soluble
13,MGSDKIHHHHHHMNRYLIIARVGDNSLHPTWINSEKRNFDLFISYFGNEEKKYSEHADYYEHMKGGKWPIISRLIDKNWEIISKYDAVWFPDDDLLVDTNSICKMFDLFSAFDLSLAQPALSMDSYFSHPCLLQQKKSIIRFTNFVEVMAPIFSLSSLERVKHTFSQSKSGWGLDFLWPHMINGKIGIIDVTPVIHTRPIGGELYKLNPELSPKMDIVKLQEIYPDIILNKKYKKNKFKVFSQILETRTLNEKMAYFKGKVQVALAKKVSKETKKYGA,not soluble
14,MGSDKIHHHHHHMNSIFTEENLLAFTTAARFGSFSKAAEELGLTTSAISYTIKRMETGLDVVLFTRSTRSIELTESGRYFFRKATDLLNDFYAIKRRIDTISQGIEARVRICINQLLYTPKHTARLLQVLKKQFPTCQITVTTEVYNGVWDAIINNQANIAIGAPDTLLDGGGIDYTEIGAIRWAFAIAPDHPLAFVPEPIAESQLRLYPNIMVEDTAHTINKKVGWLLHGQESILVPDFNTKCQCQILGEGIGFLPDYMVREAMTQSLLVTRQIHNPRQDSRMLLATQHSATGQVTQWIKKQFAPNGILTGIYQDLLHREN,not soluble
15,MGSDKIHHHHHHMNSILINHKAKADISISCFGEVLWDCFPDGKRVGGAPLNVCVRLNALGIKGSMISAVGDDPLGHELVSFIDDRGVNRDCIAIDPVKSTSTVQVTLDKNGSASYDIVADTAWDNIALTEDIIEQVNRTDVLVFGSLIGRNDVSLNTLTALVKLASFSVFDVNLRAPHYQIDSVINLMKKADFIKLNDDELYEIAKAMGSPFHSLEQNLDFVAIQTNTDYLCVTKGSHGALLSIGGQKYYNSGYLVNVVDTVGAGDSFLGSLLYQLCSDSNPQYAIDFACAVGAMVAESHGATPMITLNEIQAFMHPV,not soluble

# Source: the DeepSol protein solubility set
